Patent publication US20220162310A1

Target: human TIGIT-Fc antigen (human) (UniProt Q495A1)
Assay: ELISA on plate-coated human TIGIT-Fc (3 ug/ml), scFv from 80 nM in 1/3 steps, anti-His-HRP, OD450; value is C of the printed 4-P fit; the sheet prints no unit, nM from paragraph 123

Sequence of human TIGIT-Fc antigen (human) (Q495A1 22-141 T103A limits assumed): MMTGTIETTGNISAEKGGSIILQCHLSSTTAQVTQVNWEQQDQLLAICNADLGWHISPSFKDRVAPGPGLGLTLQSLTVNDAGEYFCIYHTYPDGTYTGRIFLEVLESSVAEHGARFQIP

B1: 1F10 (scFv-type anti-TIGIT antibody) (scFv, part only; not given: linker, domain order, His tag, V domains shown, not shown: another chain or arm of the molecule; small tags and cut ends)
VH: EVQLVESGGGLVKPGGSLRISCAASGFTFSNYNMIWVRQAPGKGLEWVSSISSSASYIYYADSVKGRFTISRDNAKNSLYLQMNSLRAEDTAVYYCARDEGSRDSWNNGPYYYSGMDVWGQGTTVTVSS
VL: AIQMTQSPSSLSASVGDRVTITCRASQSISRYLNWYQHKPGKAPKLLIYGASSLQSGVPSRFRGSGSGTDFTLTISSLQPEDFATYYCQQSYTTPGAFTFGGGTKVEIK
EC50: 0.526 nM
